The values that follow come from the DeepSol protein solubility set.

This data set is described as follows: soluble on expression in E. coli; label from the status in PepcDB or PDB records.
With “GSHPLGDTSDASKLSSDYSLPDLINTRKVPNNWQTGEQASLEEGRIVLTSNQNSKGSLWLKQGFDLKDSFTMEWTFRSVGYSGQTDGGISFWFVQDSNIPRDKQLYNGPVNYDGLQLLVDNNGPLGPTLRGQLNDGQKPVDKTKIYDQSFASCLMGYQDSSVPSTIRVTYDLEDDNLLKVQVDNKVCFQTRKVRFPSGSYRIGVTAQNGAVNNNAESFEIFKMQFFNGVIEDSLIPNVNAMGQPKLITKYIDQQTG”, the “soluble on expression in E. coli” value was “soluble”.

For the sequence “GSMAGSVGAAAPVTAANGDDSESETSESDDDSPPRPAAVAVHKREEDEEEDDEFEEVADDPIVMVAGRPFSYSEVSQRPELVAQMTPEEKEAYIAMGQRMFEDLFE”, the “soluble on expression in E. coli” value is on record as “soluble”.

“GSMAWHLGIRSQSRPNDIMAEVCRAIKQLDYEWKVVNPYYLRVRRKNPVTSTFSKMSLQLYQVDSRTYLLDFRSIDDEITEAKSGTATPQRSGSISNYRSCQRSDSDAEAQGKPSEVSLTSSVTSLDSSPVDVAPRPGSHTIEFFEMCANLIKILAQ”: the “soluble on expression in E. coli” value was “soluble”.

Regarding “GSPLPWCPHLVAVCPIPAAGLDVTQPCGDCGTIQENWVCLSCYQVYCGRYINGHMLQHHGNSGHPLVLSYIDLSAWCYYCQAYVHHQALLDVKNIAHQNKFGEDMPHPH”, the “soluble on expression in E. coli” value is given as “soluble”.

For “GSSGSSGGEIIEGCRLPVLRRNQDNEDEWPLAEILSVKDISGRKLFYVHYIDFNRRLDEWVTHERLDLKKIQFPKKEAKTPSGPSSG”, the “soluble on expression in E. coli” value is “soluble”.

Take “GSSGSSGHESETTTSLVLERSLNRVHLLGRVGQDPVLRQVEGKNPVTIFSLATNEMWRSGDSEVYQLGDVSQKTTWHRISVFRPGLRDVAYQYVKKGSRIYLEGKIDYGEYMDKNNVRRQATTIIADNIIFLSDQTKEKE”: the “soluble on expression in E. coli” value is on record as “soluble”.

Consider “GSSSLIRRVISTAKAPGAIGPYSQAVLVDRTIYISGQIGMDPSSGQLVSGGVAEEAKQALKNMGEILKAAGCDFTNVVKTTVLLADINDFNTVNEIYKQYFKSNFPARAAYQVAALPKGSRIEIEAVAIQGPLTTASL”, for which the “soluble on expression in E. coli” value is listed as “soluble”.

Consider “GSVTVPEVIASEVISYAQEENLLRKYGTVIRTAGDVKYPILVKKAEANVNKKERTTDITETAIQFDEILLDPAEFDALATVTKKLLKMSGVPVEDIVVEELKKAYVRKEINYMFNGDDAGNENPGALAKKAVAFEKPVDLTAAGAGQKLYDALIEFKNTPVTEVMKKGRFIINRAALTAIEKMKTDDGFPLLRPFTQAEGGIGYQLVGYPVDWTDAADKKGEPDTPVLYFGDFSAFKIQEVIGALEIQKLVEKFSGKNQVGFQIYNLLDGQLVYSPFEPAVYRYEITKPVGG”, for which the “soluble on expression in E. coli” value was “not soluble”.

For the sequence “GTPEQLQAWRWEREIDERNRPLSDEELDAMFPEGYKVLPPPAGYVPI”, the “soluble on expression in E. coli” value is recorded as “soluble”.

With “GTTKHSKLLILGSGPAGYTAAVYAARANLQPVLITGMEKGGQLTTTTEVENWPGDPNDLTGPLLMERMHEHATKFETEIIFDHINKVDLQNRPFRLNGDNGEYTCDALIIATGASARYLGLPSEEAFKGRGVSACATCDGFFYRNQKVAVIGGGNTAVEEALYLSNIASEVHLIHRRDGFRAEKILIKRLMDKVENGNIILHTNRTLEEVTGDQMGVTGVRLRDTQNSDNIESLDVAGLFVAIGHSPNTAIFEGQLELENGYIKVQSGIHGNATQTSIPGVFAAGDVMDHIYRQAITSAGTGCMAALDAERYLDGLADAK”, the “soluble on expression in E. coli” value was “soluble”.

For “GTTVHCDYLNRPHKSIHRRRTDPMVTLSSILESIINDMRDLPNTYPFHTPVNAKVVKDYYKIITRPMDLQTLRENVRKRLYPSREEFREHLELIVKNSATYNGPKHSLTQISQSMLDLCDEKLKEKEDKLARLEKAINPLLDDDDQVAFSFILDNIVTQKMMAVPDSWPFHHPVNKKFVPDYYKVIVNPMDLETIRKNISKHKYQSRESFLDDVNLILANSVKYNGPESQYTKTAQEIVNVCYQTLTEYDEHLTQLEKDICTAKEAALEEAELESLDPMT”, the “soluble on expression in E. coli” value is “soluble”.

With “GVTGVTTGFTDLDKKTAGLQPSDLIIVAARPSMGKTTFAMNLCENAAMASEKPVLVFSLEMPAEQIMMRMIASLARVDQTKIRTGQNLDEIEWNKIASVVGMFKQKNNLFIDDSSGLTPTDVRSRARRVYRENGGLSMIMVDYLQLMRAPAFSDNRTLEIAEISRSLKALAKELQVPVVALSQLNRTLEQRGDKRPVNSDL”, the “soluble on expression in E. coli” value is given as “not soluble”.

Take “HAIFERHENDLHCEVPISFATAALGGSIEVPTLEGRVTLKIPAETQTGKVFRLRSKGMKSVRGYGQGDLLCKVVVETPVNLSREQKELLNKLQDSLENAKGTH”: the “soluble on expression in E. coli” value was “not soluble”.

For “HGPASRLLHRHIREQLKDLKEVSHESLVVGAVENAFQLMDEQMARERRGHQVEGGCCALVVIYLLGKVYVANAGDSRAIIVRNGEIIPMSREFTPETERQRLQLLGFLKPELLGSEFTHLEFPRRVLPKELGQRMLYRDQNMTGWAYKKIELEDLRFPLVCGEGKKARVMATIGVTRGLGDHSLKVCSSTLPIKPFLSCFPEVRVYDLTQYEHCPDDVLVLGTDGLWDVTTDCEVAATVDRVLSAYEPNDHSRYTALAQALVLGARGTPRDRGWRLPNNKLGSGDDISVFVIPLGGPGSYSVRASSPSPL”, the “soluble on expression in E. coli” value was “not soluble”.

For the sequence “HGYVESPASRAYQCKLQLNTQCGSVQAEPQSVEGLKGFPQAGPADGHIASADKSTFFELDQQTPTRWNKLNLKTGPNSFTWKLTARHSTTSWRYFITKPNWDASQPLTRASFDLTPFCQFNDGGAIPAAQVTHQCNIPADRSGSHVILAVWDIADTANAFYQAIDVNLSK”, the “soluble on expression in E. coli” value is listed as “soluble”.

Consider “HHHHHHGCMSGRKPIIGVMGPGKADTAENQLVMANELGKQIATHGWILLTGGRSLGVMHEAMKGAKEAGGTTIGVLPGPDTSEISDAVDIPIVTGLGSARDNINALSSNVLVAVGMGPGTAAEVALALKAKKPVVLLGTQPEAEKFFTSLDAGLVHVAADVAGAIAAVKQLLAKLN”, for which the “soluble on expression in E. coli” value is listed as “soluble”.

For the sequence “HHHHHHGSMTIKPLRKAVFPVAGLGTRFLPATKAMPKEMLPVVDRPLIQYAVDEAVEAGIEQMIFVTGRGKSALEDHFDIAYELEATMAARGKSLDVLDGTRLKPGNIAYVRQQEPMGLGHAVWCARDIVGDEPFAVLLPDDFMFGQPGCLKQMVDAYNKVGGNLICAEEVPDDQTHRYGIITPGTQDGVLTEVKGLVEKPAPGTAPSNLSVIGRYILQPEVMRILENQGKGAGGEIQLTDAMQRMIGDQPFHGVTFQGTRYDCGDKAGFIQANLAVALSRPDLEPAVRAFAVKALG”, the “soluble on expression in E. coli” value is recorded as “soluble”.

As to “HHHHHHPEIVDTCSLASPASVCRTKHLHLRCSVDFTRRTLTGTAALTVQSQEDNLRSLVLDTKDLTIEKVVINGQEVKYALGERQSYKGSPMEISLPIALSKNQEIVIEISFETSPKSSALQWLTPEQTSGKEHPYLFSQCQAIHCRAILPCQDTPSVKLTYTAEVSVPKELVALMSAIRDGETPDPEDPSRKIYKFIQKVPIPCYLIALVVGALESRQIGPRTLVWSEKEQVEKSAYEFSETESMLKIAEDLGGPYVWGQYDLLVLPPSFPYGGMENPCLTFVTPTLLAGDKSLSNVIAHEISHSWTGNLVTNKTWDHFWLNEGHTVYLERHICGRLFGEKFRHFNALGGWGELQNSVKTFGETHPFTKLVVDLTDIDPDVAYSSVPYEKGFALLFYLEQLLGGPEIFLGFLKAYVEKFSYKSITTDDWKDFLYSYFKDKVDVLNQVDWNAWLYSPGLPPIKPNYDMTLTNACIALSQRWITAKEDDLNSFNATDLKDLSSHQLNEFLAQTLQRAPLPLGHIKRMQEVYNFNAINNSEIRFRWLRLCIQSKWEDAIPLALKMATEQGRMKFTRPLFKDLAAFDKSHDQAVRTYQEHKASMHPVTAMLVGKDLKVD”, the “soluble on expression in E. coli” value is on record as “soluble”.

Regarding “HHHHHHSSGLVPRGSHMSVKKAGVLGATGSVGQRFILLLSKHPEFEIHALGASSRSAGKKYKDAASWKQTETLPETEQDIVVQECKPEGNFLECDVVFSGLDADVAGDIEKSFVEAGLAVVSNAKNYRREKDVPLVVPIVNPEHIDVVENKVKQAVSKGGKKPGFIICISNCSTAGLVAPLKPLVEKFGPIDALTTTTLQAISGAGFSPGVSGMDILDNIVPYISGEEDKLEWETKKILGGVNAEGTEFVPIPESEMKVSAQCNRVPVIDGHTECISLRFANRPAPSVEDVKQCLREYECAASKLGCHSAPKQTIHVLDQPDRPQPRLDRDRDSGYGVSVGRIREDSLLDFKMVVLSHNTIIGAAGAGILIAEILKAKNII”, the “soluble on expression in E. coli” value was “soluble”.

Consider “HISLNPDLANEDEVNSCDYWRHCAVDGFLCSCCGGTTTTCPPGSTPSPISWIGTCHNPHDGKDYLISYHDCCGKTACGRCQCNTQTRERPGYEFFLHNDVNWCMANENSTFHCTTSVLVGLAKN”, for which the “soluble on expression in E. coli” value is listed as “soluble”.

On to “HKDFTWNTTLSATWSKEKIDKLPDGDLISENLFTGEPIHAIYGYKYAGIWGSDTPKETLDAYGVNPGFIKIETVDKNGDGGVHKYSTDDRQILGHTNPDWIIGLNNSFTYKNFDLSVFAMARYGQTINSDLLGYYTAEQSVTKNQLAGVDYWTEDNQGAYFPRPGTGDEQKTVYPSLRVHDGSFIKIKNITLGYTLPANISRKVLMEKCRIYATAYNPFIFVKDKQLKDTDPETNGSDAFPTYRQFVFGVNLTF”, for which the “soluble on expression in E. coli” value is reported as “not soluble”.

For the sequence “HMPSVIVVGGQWGDEGKGSIVAYLSLHDEPEIIARGGVGTNAGHSVVINGKKYAVRQIPTGFMQTKARLLIGAGVLVDPEVFFHELEQLKDFNVKDRVGIDYRCAIIEEKHKQLDRTNGYLHGKIGTTGSGCGPANADRVMRKAKQAKDVKELEPYLTDVAQEINDALDEGSLVLVEGTQGFGLSLYYGTYPYVTSKDVTASSVAADVGIGPTRVDEVIVVFKSFPTRVGAGPFPTEMPMEEADRLGLVEYGTVTGRRRRVGWFDFEMARYSARINGATMLAVTMLDKYDKEAFGVTDYDKLPRKAKEFIEEIEERVGVPVGLIKTGPELEHIIDRRDTI”, the “soluble on expression in E. coli” value is listed as “soluble”.

Consider “HPMCKEHEDEKINIYCLTCEVPTCSMCKVFGIHKACEVAPLQSVFQGQKTE”, for which the “soluble on expression in E. coli” value is “soluble”.

As for “HQQLNSLPTMEGPPTFNPPVPYFGRLQGGLTARRTIIIKGYVPPTGKSFAINFKVGSSGDIALHINPRMGNGTVVRNSLLNGSWGSEEKKITHNPFGPGQFFDLSIRCGLDRFKVYANGQHLFDFAHRLSAFQRVDTLEIQGDVTLSYVQI”, the “soluble on expression in E. coli” value is “soluble”.

Regarding “HRPKRIESAVISSFSPVINSPMRDYLGKGLDHLATHSRYDMGRLINDTIGKHLPSLFKRFNYRHVSTLDGHEYDQMHYHFSQILELDPDNYLTAGQQIKAPVLFINGAWDEYTSASDATQFSRYLQNCSFSTIEATGHFLDMEHKAACNDSKQALMKFLQ”, the “soluble on expression in E. coli” value is on record as “not soluble”.

Turning to “HVGYPLLLKWLPLKPKANDEGEHFAERHYKASASDNKLPSVTIIIPAYNEEQWIAEKIRNLASLDYPRDKLKVVIACDGCTDKTAEIAQDTIQEAICSDTLFIVNDHSINRGKVALINEEMKHVTSDITALSDTSALVSCDSLLLASQHYQNEKVGVVNATYQIMRTSNQGEAAYWQYQSRVKHQESLLGSTIGSHGAFYTFRTKLFEPLEAGTINDDFILPMRIVLRGFTSVYEPKMLALELEQSSDDADFKRRLRISAGNMQQLMQLKKLLLPRYRGTAFAFLSGKVLR”, the “soluble on expression in E. coli” value was “not soluble”.
